According to PMC3082741 (Chemistry & biology, 2011):
Several values for one entry are separate records, joined by “and”; a condition that tells them apart may be missing. Equal entries are not always repeated.

B1: AcrB^S1043C biotinylated at C1043 (Cys1043^bio), the immobilized AcrB (natural protein)
chain: MPNFFIDRPIFAWVIAIIIMLAGGLAILKLPVAQYPTIAPPAVTISASYPGADAKTVQDTVTQVIEQNMNGIDNLMYMSSNSDSTGTVQITLTFESGTDADIAQVQVQNKLQLAMPLLPQEVQQQGVSVEKSSSSFLMVVGVINTDGTMTQEDISDYVAANMKDAISRTSGVGDVQLFGSQYAMRIWMNPNELNKFQLTPVDVITAIKAQNAQVAAGQLGGTPPVKGQQLNASIIAQTRLTSTEEFGKILLKVNQDGSRVLLRDVAKIELGGENYDIIAEFNGQPASGLGIKLATGANALDTAAAIRAELAKMEPFFPSGLKIVYPYDTTPFVKISIHEVVKTLVEAIILVFLVMYLFLQNFRATLIPTIAVPVVLLGTFAVLAAFGFSINTLTMFGMVLAIGLLVDDAIVVVENVERVMAEEGLPPKEATRKSMGQIQGALVGIAMVLSAVFVPMAFFGGSTGAIYRQFSITIVSAMALSVLVALILTPALSATMLKPIAKGDHGEGKKGFFGWFNRMFEKSTHHYTDSVGGILRSTGRYLVLYLIIVVGMAYLFVRLPSSFLPDEDQGVFMTMVQLPAGATQERTQKVLNEVTHYYLTKEKNNVESVFAVNGFGFAGRGQNTGIAFVSLKDWADRPGEENKVEAITMRATRAFSQIKDAMVFAFNLPAIVELGTATGFDFELIDQAGLGHEKLTQARNQLLAEAAKHPDMLTSVRPNGLEDTPQFKIDIDQEKAQALGVSINDINTTLGAAWGGSYVNDFIDRGRVKKVYVMSEAKYRMLPDDIGDWYVRAADGQMVPFSAFSSSRWEYGSPRLERYNGLPSMEILGQAAPGKSTGEAMELMEQLASKLPTGVGYDWTGMSYQERLSGNQAPSLYAISLIVVFLSLAALYESWSIPFSVMLVVPLGVIGALLAATFRGLTNDVYFQVGLLTTIGLSAKNAILIVEFAKDLMDKEGKGLIEATLDAVRMRLRPILMTSLAFILGVMPLVISTGAGSGAQNAVGTGVMGGMVTATVLAIFFVPVFFVVVRRRFSRKNEDIEHCHTVDHH
modifications: maleimide-PEG2-biotin on C1043
B2: AcrA^l, native lipid-modified AcrA (natural protein)
chain: CDDKQAQQGGQQMPAVGVVTVKTEPLQITTELPGRTSAYRIAEVRPQVSGIILKRNFKEGSDIEAGVSLYQIDPATYQATYDSAKGDLAKAQAAANIAQLTVNRYQKLLGTQYISKQEYDQALADAQQANAAVTAAKAAVETARINLAYTKVTSPISGRIGKSNVTEGALVQNGQATALATVQQLDPIYVDVTQSSNDFLRLKQELANGTLKQENGKAKVSLITSDGIKFPQDGTLEFSDVTVDQTTGSITLRAIFPNPDHTLLPGMFVRARLEEGLNPNAILVPQQGVTRTPRGDATVLVVGADDKVETRPIVASQAIGDKWLVTEGLKAGDRVVISGLQKVRPGVQVKAQEVTADNNQQAASGAQPEQSKS
modifications: N-terminal lipid modification at C25
B3: AcrA^G363C, lipid-modified AcrA with the G363C substitution in the MP domain (natural protein)
chain: CDDKQAQQGGQQMPAVGVVTVKTEPLQITTELPGRTSAYRIAEVRPQVSGIILKRNFKEGSDIEAGVSLYQIDPATYQATYDSAKGDLAKAQAAANIAQLTVNRYQKLLGTQYISKQEYDQALADAQQANAAVTAAKAAVETARINLAYTKVTSPISGRIGKSNVTEGALVQNGQATALATVQQLDPIYVDVTQSSNDFLRLKQELANGTLKQENGKAKVSLITSDGIKFPQDGTLEFSDVTVDQTTGSITLRAIFPNPDHTLLPGMFVRARLEEGLNPNAILVPQQGVTRTPRGDATVLVVGADDKVETRPIVASQAIGDKWLVTEGLKAGDRVVISCLQKVRPGVQVKAQEVTADNNQQAASGAQPEQSKS
modifications: N-terminal lipid modification at C25; disulfide bond between the two chains

Experiments:
[1] = target: AcrA^S362C modified with biotin-maleimide, the immobilized AcrA (E. coli) (UniProt P0AE06); test: SPR
SEC-MALS [2] = target: the molecule itself; test: SEC-MALS
SEC-MALS [3] = target: the molecule itself; test: SEC-MALS; remark: listed apart in the source
[4] = target: the molecule itself; test: SDS-PAGE under reducing and non-reducing conditions

Molecule	KD1 (slow complexes, two populations of AcrA) [1] [µM]	KD2 (fast complexes, two populations of AcrA) [1] [µM]	further results
TolC, outer membrane channel (from UniProt P02930 23-493) (natural protein)	0.01	0.11	–
TolC^YFRE, TolC mutant containing Y362F and R367E substitutions (open variant) (from UniProt P02930 23-493) (natural protein)	0.02	6.7	–
B1	–	–	stoichiometry N (SEC-MALS [2]): 2 and 3
B2	–	–	stoichiometry N (SEC-MALS [3]): 2
B3	–	–	stoichiometry N [4]: 2
